Data on three molecules can be found in patent publication US20230265192A1 (GIGAGEN, published 2023).

The target of assay [1] is T1, His-tagged human CTLA-4 (CT4-H5229; Acro Biosystems) (human, UniProt P16410 36-161).
T1 construct: bought soluble protein; also called soluble human CTLA-4; recombinant human CTLA-4; not shown: His tag
Description: SPR (Carterra). In outline: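 mAb supernatants captured, at two densities, on an anti-human IgG Fc lawn. His-tagged human CTLA-4 injected at 1.95, 7.8, 31.25, 125 and 500 nM in HBS-EPC pH 7.4 with 1.0 mg/mL BSA, as a non-regenerative series with 5-min association and 15-min dissociation. Double-referenced data fitted for ka, kd and KD.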

Assay [2] has as its target T2, human CTLA-4 expressed on the cell surface (human, UniProt P16410 36-223). In words: cell-based or functional assay.
The target in assay [3] is T3, His-tagged cynomolgus CTLA-4 (CT4-C5227; Acro Biosystems) (cynomolgus, UniProt G7PL88 36-161).
T3 construct: also called soluble cynomolgus CTLA-4; cyno CTLA-4
In words: BLI (Octet), single antigen concentration.

The target of assay [4] is T2, human CTLA-4 expressed on the cell …. In words: flow cytometry, 10 µg/mL mAb, geometric MFI. (A flow cytometer gives signals particle by particle.)
The target of another assay is T4, CD27 on CHO cells (UniProt P26842 20-260, limits assumed).
T4 construct: whole, on cells; also called CD27+ CHO cells; irrelevant antigen (CD27)
Description: flow cytometry, 10 µg/mL mAb, geometric MFI.

Assay [5] deals with T5, recombinant human CTLA-4-Fc (7268-CT, R&D Systems) (human, UniProt P16410 36-162).
T5 construct: bought; also called rhCTLA-4-Fc; rhCTLA4-Fc; Fc part of the bought chimera not given
Description: blocking ELISA, plate rhCTLA4-Fc, competitor rhCD86-His. The protocol:
Plates were coated with rhCTLA4-Fc and then blocked with 1×PBST with 5% w/v nonfat dry milk. After blocking a dilution series of the indicated antibody was added to the plate.
In general terms: ELISA stands for enzyme-linked immunosorbent assay.

T4 sequence (P26842 20-260 limits assumed): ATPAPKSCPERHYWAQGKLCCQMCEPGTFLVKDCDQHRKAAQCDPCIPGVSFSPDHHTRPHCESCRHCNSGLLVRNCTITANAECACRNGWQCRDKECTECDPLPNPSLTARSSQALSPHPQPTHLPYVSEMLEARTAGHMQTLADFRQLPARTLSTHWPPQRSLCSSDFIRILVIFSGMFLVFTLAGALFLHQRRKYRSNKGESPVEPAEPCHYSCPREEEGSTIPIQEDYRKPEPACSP
T5 sequence (P16410 36-162): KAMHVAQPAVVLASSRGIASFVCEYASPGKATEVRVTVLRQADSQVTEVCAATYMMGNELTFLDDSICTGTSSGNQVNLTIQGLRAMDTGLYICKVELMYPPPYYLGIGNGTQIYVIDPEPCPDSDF
T2 sequence (P16410 36-223 limits assumed): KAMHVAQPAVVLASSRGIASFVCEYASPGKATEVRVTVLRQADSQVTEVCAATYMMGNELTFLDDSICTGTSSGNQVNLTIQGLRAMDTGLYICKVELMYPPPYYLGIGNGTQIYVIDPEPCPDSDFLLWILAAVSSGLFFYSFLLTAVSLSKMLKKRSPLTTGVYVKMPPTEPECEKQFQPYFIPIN
T1 sequence (P16410 36-161 limits assumed): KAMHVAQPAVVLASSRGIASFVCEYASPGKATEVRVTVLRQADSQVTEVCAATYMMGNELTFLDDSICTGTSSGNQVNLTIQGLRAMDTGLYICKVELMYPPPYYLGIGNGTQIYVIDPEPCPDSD
T3 sequence (G7PL88 entry or part of it limits assumed, form in doubt): as the sequence (P16410 36-161 limits assumed) above, with S14N, I18T, L106M counted along it

B1: antibody A7 (L7H7) (antibody, V domains shown)
VH: QVQLVESGGGVVQPGRSLRLSCAASGFTLSSFGMHWVRQAPGKGLEWVAVIWYDGSNKYYADSVKGRFIISRDNSKTALYLQMNSLRAEDTAVYYCARAHYFGAFDIWGQGTMVTVSS
VL: not shown
notes: also called aCTLA-4.3; CTLA4.A7
Broadly, the Kd is the free concentration of one partner at which half of the binding sites on the other are occupied at equilibrium, for simple one-to-one binding. Low values mean a tighter complex, high ones a looser complex. The term koff denotes a measure of how fast the partners let go of each other. A word on the kon: it is the second-order rate constant of association. Low values mean slow association, high ones fast association. As usually defined, the EC50 is the midpoint of the concentration-response curve. In assay [1], B1 had a Kd of 5.7 nM, a dissociation rate constant (koff) of 0.00036 s⁻¹ and an on-rate constant (kon) of 64000 M⁻¹ s⁻¹. In assay [2], the “Promega assay % inhibition” value came out at 11.5% and the “Promega assay antagonist (EC50, ug/mL)” value worked out at 0.17 µg/mL. The molecule also gave an equilibrium dissociation constant (Kd) in assay [3] of 0.8 nM. Also, the “MFI of CTLA-4+ CHO cells” value in assay [4] came to 854. Also, the “MFI of CD27+ CHO cells” value in the assay with CD27 on CHO cells was determined as 15.3. For the same molecule, in assay [5], the CD86 % inhibition came out at 78.8% and the 50% effective concentration (EC50) was 1.98 µg/mL.

B2: antibody A5 (L5H5) (antibody, V domains shown)
VH: QVQLVESGGGVVQPGRSLRLSCAASGFTFSSYGMHWVRQAPGKGLEWVAVIWYDGNNKYYADSVKGRFTISRDNSKNTLYLQMYSLRAEDTAVYYCARGGILAAGIFDYWGQGTLVTVSS
VL: EIVLTQSPGTLSLSPGDRATLSCRASQSGSSSYLAWYQQKPGQAPRLLIYGASSRATGIPDRFSGSGSGTDFTLTISRLEPEDFAVYYCQQYGTSPFTSGPGTKVDIK
notes: also called aCTLA-4.28; CTLA4.A5
In assay [1], B2 had a Kd of 4.6 nM, a koff of 0.00042 s⁻¹ and an association rate constant (kon) of 90000 M⁻¹ s⁻¹. In addition, in assay [2], the “Promega assay % inhibition” value stood at 100% and the “Promega assay antagonist (EC50, ug/mL)” value stood at 0.18 µg/mL. Also, binding in assay [3] was put at a Kd of 2.2 nM. Moreover, the “MFI of CTLA-4+ CHO cells” value in assay [4] was determined as 1030. Also, the “MFI of CD27+ CHO cells” value with CD27 on CHO cells amounted to 17.2. Moreover, in assay [5], the CD86 % inhibition stood at 90.6% and the EC50 amounted to 0.122 µg/mL.

B3: antibody A2 (L2H2) (antibody, V domains shown)
VH: QVQLVESGGGVVQPGRSLRLSCAASGFTFSNYGMNWVRQAPGKGLEWVAVIWYDGRNKHYADSVKGRFTISRDNSKNTLYLQMNSLRAEDTAVYYCARGGDWGPYFDYWGQGTLVTVSS
VL: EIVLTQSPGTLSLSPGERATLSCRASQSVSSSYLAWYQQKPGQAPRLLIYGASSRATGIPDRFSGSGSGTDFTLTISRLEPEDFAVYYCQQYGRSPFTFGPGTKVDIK
notes: also called aCTLA-4.4; CTLA4.A2
As to B3, in assay [1], the dissociation constant (Kd) was found to be 5.1 nM, the koff is 0.00052 s⁻¹ and the kon is 100000 M⁻¹ s⁻¹. Moreover, in assay [2], the “Promega assay % inhibition” value was found to be 75.4% and the “Promega assay antagonist (EC50, ug/mL)” value amounted to 0.12 µg/mL. The dissociation constant Kd in assay [3] came to 3.1 nM. Further, the “MFI of CTLA-4+ CHO cells” value in assay [4] was 1120. Further, the “MFI of CD27+ CHO cells” value with CD27 on CHO cells turned out to be 11.7. In assay [5], the CD86 % inhibition stood at 91.5% and the EC50 was 0.145 µg/mL.
